Experimental findings from article PMC3341524 are described below.

This test concerns the target murine p35-HA alanine/serine-scan mutant A13 (mouse) (UniProt P43431). Kind of test: co-IP.

B1: murine Ebi3, triple-FLAG tagged (natural protein)
chain: YTETALVALSQPRVQCHASRYPVAVDCSWTPLQAPNSTRSTSFIATYRLGVATQQQSQPCLQRSPQASRCTIPDVHLFSTVPYMLNVTAVHPGGASSSLLAFVAERIIKPDPPEGVRLRTAGQRLQVLWHPPASWPFPDIFSLKYRLRYRRRGASHFRQVGPIEATTFTLRNSKPHAKYCIQVSAQDLTDYGKPSDWSLPGQVESAPHKP
Consider B1, for which the decrease in IL-35 dimer formation against wild type worked out at 30%.
